Experiments:
[1] = target: T1, Recombinant human HER2 (human, UniProt P04626 23-652); assay: SPR, Biacore T200, 25 C; variant captured on anti-human Fc, HER2 flowed;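 note: HER2 extracellular domain analyte run as duplicate dilutions over amine-coupled anti-Fc on a CM5 chip, rates from global sensorgram fitting with a 1:1 Langmuir model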
T1 construct: extracellular domain; Analyte of the SPR assays; also called HER2 ECD; ECD2 of HER2

[2] = target: T1, Recombinant human HER2; assay: SPR, 25 C; Ka ratio to WT v10013;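 note: constructs captured via anti-human Fc on CM5 chip, HER2 ECD as analyte in duplicate dilutions, sensorgrams globally fit to 1:1 Langmuir model on Biacore T200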
[3] = target: T1, Recombinant human HER2; assay: calculated from the SPR Ka ratio to WT v10013;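 note: SPR at 25 °C with constructs captured on an anti-human Fc chip and HER2 extracellular domain as analyte, kinetics fitted to a 1:1 Langmuir model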
Description: The affinity towards HER2 ECD of the samples was measured by SPR on a Biacore T200 as follows. Between 2000 and 4000 RU of anti-human Fc injected at concentration between 5 and 10 μg/ml was immobilized on a CM5 chip using standard amine coupling. Antigen-binding constructs were captured on the anti-human Fc (injected at concentration at 0.51 microg/mL in PBST, 1 min at 10 microl/min) at response levels ranging from 120-270 RU. […] HER2 dilutions were analyzed in duplicates. Sensograms were fit globally to a 1: 1 Langmuir binding model, using the software provided with the Biacore T200. All experiments were conducted at 25° C.

B1: Variant 14047 (antibody, human IgG1, kappa)
heavy: EVQLVESGGGLVQPGGSLRLSCAASGFTFQDYTMDWVRQAPGKGLEWVADVNPNSGGSIYNQRFKGRFTLSVDRSWNTLYLQMNSLRAEDTAVYYCARNLGPSFYFDYWGQGTLVTVSSASTKGPSVFPLAPSSKSTSGGTAALGCLVKDYFPEPVTVSWNSGALTSGVHTFPAVLQSSGLYSLSSVVTVPSSSLGTQTYICNVNHKPSNTKVDKKVEPKSCDKTHTCPPCPAPELLGGPSVFLFPPKPKDTLMISRTPEVTCVVVDVSHEDPEVKFNWYVDGVEVHNAKTKPREEQYNSTYRVVSVLTVLHQDWLNGKEYKCKVSNKALPAPIEKTISKAKGQPREPQVYVYPPSRDELTKNQVSLTCLVKGFYPSDIAVEWESNGQPENNYKTTPPVLDSDGSFALVSKLTVDKSRWQQGNVFSCSVMHEALHNHYTQKSLSLSPG
light: not shown
chain: not shown
notes: OA (one-armed) format; clones 8775, 7917, 4372; also called v14047
A Kd [1] of ~0.1 nM, a koff [1] of ~7.1e-06 s⁻¹ and a kon [1] of 70000 M⁻¹ s⁻¹ were found for B1 in this work. The “Ka, mut/Ka, WT” value [2] was ~188 fold and the ΔΔG [3] was -3.1 kcal/mol.

B2: Variant 14058 (antibody, human IgG1, kappa)
heavy: EVQLVESGGGLVQPGGSLRLSCAASGFTFQDYTMDWVRQAPGKGLEWVADVNPNSGGSIYNQRFKGRFTLSVDRSWNTLYLQMNSLRAEDTAVYYCARNLGPWFYFDYWGQGTLVTVSSASTKGPSVFPLAPSSKSTSGGTAALGCLVKDYFPEPVTVSWNSGALTSGVHTFPAVLQSSGLYSLSSVVTVPSSSLGTQTYICNVNHKPSNTKVDKKVEPKSCDKTHTCPPCPAPELLGGPSVFLFPPKPKDTLMISRTPEVTCVVVDVSHEDPEVKFNWYVDGVEVHNAKTKPREEQYNSTYRVVSVLTVLHQDWLNGKEYKCKVSNKALPAPIEKTISKAKGQPREPQVYVYPPSRDELTKNQVSLTCLVKGFYPSDIAVEWESNGQPENNYKTTPPVLDSDGSFALVSKLTVDKSRWQQGNVFSCSVMHEALHNHYTQKSLSLSPG
light: not shown
chain: not shown
notes: OA (one-armed) format; clones 8784, 7917, 4372; also called v14058
A Kd [1] of 3.9 nM, a koff [1] of 0.00092 s⁻¹ and a kon [1] of 240000 M⁻¹ s⁻¹ were found for B2 in this work. For the same binder, the “Ka, mut/Ka, WT” value [2] was 4 fold and the ΔΔG [3] was -0.9 kcal/mol.

B3: Variant 14051 (antibody, human IgG1, kappa)
heavy: EVQLVESGGGLVQPGGSLRLSCAASGFTFQDYTMDWVRQAPGKGLEWVADVNPNSGGSIYNQRFKGRFTLSVDRSKNTLYLQMNSLRAEDTAVYYCARNLGPSFYFDYWGQGTLVTVSSASTKGPSVFPLAPSSKSTSGGTAALGCLVKDYFPEPVTVSWNSGALTSGVHTFPAVLQSSGLYSLSSVVTVPSSSLGTQTYICNVNHKPSNTKVDKKVEPKSCDKTHTCPPCPAPELLGGPSVFLFPPKPKDTLMISRTPEVTCVVVDVSHEDPEVKFNWYVDGVEVHNAKTKPREEQYNSTYRVVSVLTVLHQDWLNGKEYKCKVSNKALPAPIEKTISKAKGQPREPQVYVYPPSRDELTKNQVSLTCLVKGFYPSDIAVEWESNGQPENNYKTTPPVLDSDGSFALVSKLTVDKSRWQQGNVFSCSVMHEALHNHYTQKSLSLSPG
light: not shown
chain: not shown
notes: OA (one-armed) format; clones 7815, 8781, 4372; also called v14051
A Kd [1] of ~0.31 nM, a koff [1] of ~1.64e-05 s⁻¹ and a kon [1] of 53000 M⁻¹ s⁻¹ were found for B3 in this work. For the same binder, the “Ka, mut/Ka, WT” value [2] was ~62 fold and the ΔΔG [3] was -2.4 kcal/mol.

B4: Variant 14060 (antibody, human IgG1, kappa)
heavy: EVQLVESGGGLVQPGGSLRLSCAASGFTFQDYTMDWVRQAPGKGLEWVADVNPNSGGSIYNQRFKGRFTLSVDRSKNTLYLQMNSLRAEDTAVYYCARNLGPWFYFDYWGQGTLVTVSSASTKGPSVFPLAPSSKSTSGGTAALGCLVKDYFPEPVTVSWNSGALTSGVHTFPAVLQSSGLYSLSSVVTVPSSSLGTQTYICNVNHKPSNTKVDKKVEPKSCDKTHTCPPCPAPELLGGPSVFLFPPKPKDTLMISRTPEVTCVVVDVSHEDPEVKFNWYVDGVEVHNAKTKPREEQYNSTYRVVSVLTVLHQDWLNGKEYKCKVSNKALPAPIEKTISKAKGQPREPQVYVYPPSRDELTKNQVSLTCLVKGFYPSDIAVEWESNGQPENNYKTTPPVLDSDGSFALVSKLTVDKSRWQQGNVFSCSVMHEALHNHYTQKSLSLSPG
light: not shown
chain: not shown
notes: OA (one-armed) format; clones 8780, 8781, 4372; also called v14060
A Kd [1] of 9.2 nM, a koff [1] of 0.0013 s⁻¹ and a kon [1] of 140000 M⁻¹ s⁻¹ were found for B4 in this work. For the same binder, the “Ka, mut/Ka, WT” value [2] was 2 fold and the ΔΔG [3] was -0.3 kcal/mol.

B5: Variant 14057 (antibody, human IgG1, kappa)
heavy: EVQLVESGGGLVQPGGSLRLSCAASGFTFTDYTMDWVRQAPGKGLEWVADVNPNSGGSIYNQRFKGRFTLSVDRSWNTLYLQMNSLRAEDTAVYYCARNLGPWFYFDYWGQGTLVTVSSASTKGPSVFPLAPSSKSTSGGTAALGCLVKDYFPEPVTVSWNSGALTSGVHTFPAVLQSSGLYSLSSVVTVPSSSLGTQTYICNVNHKPSNTKVDKKVEPKSCDKTHTCPPCPAPELLGGPSVFLFPPKPKDTLMISRTPEVTCVVVDVSHEDPEVKFNWYVDGVEVHNAKTKPREEQYNSTYRVVSVLTVLHQDWLNGKEYKCKVSNKALPAPIEKTISKAKGQPREPQVYVYPPSRDELTKNQVSLTCLVKGFYPSDIAVEWESNGQPENNYKTTPPVLDSDGSFALVSKLTVDKSRWQQGNVFSCSVMHEALHNHYTQKSLSLSPG
light: not shown
chain: not shown
notes: OA (one-armed) format; clones 8774, 8781, 4372; also called v14057
A Kd [1] of 3.6 nM, a koff [1] of 0.00045 s⁻¹ and a kon [1] of 120000 M⁻¹ s⁻¹ were found for B5 in this work. The “Ka, mut/Ka, WT” value [2] was 5 fold and the ΔΔG [3] was -0.9 kcal/mol.

B6: Variant 14049 (antibody, human IgG1, kappa)
heavy: EVQLVESGGGLVQPGGSLRLSCAASGFTFYDYTMDWVRQAPGKGLEWVADVNPNSGGSIYNQRFKGRFTLSVDRSWNTLYLQMNSLRAEDTAVYYCARNLGPSFYFDYWGQGTLVTVSSASTKGPSVFPLAPSSKSTSGGTAALGCLVKDYFPEPVTVSWNSGALTSGVHTFPAVLQSSGLYSLSSVVTVPSSSLGTQTYICNVNHKPSNTKVDKKVEPKSCDKTHTCPPCPAPELLGGPSVFLFPPKPKDTLMISRTPEVTCVVVDVSHEDPEVKFNWYVDGVEVHNAKTKPREEQYNSTYRVVSVLTVLHQDWLNGKEYKCKVSNKALPAPIEKTISKAKGQPREPQVYVYPPSRDELTKNQVSLTCLVKGFYPSDIAVEWESNGQPENNYKTTPPVLDSDGSFALVSKLTVDKSRWQQGNVFSCSVMHEALHNHYTQKSLSLSPG
light: not shown
chain: not shown
notes: OA (one-armed) format; clones 8776, 7919, 4372; also called v14049
A Kd [1] of ~0.19 nM, a koff [1] of ~1.4e-05 s⁻¹ and a kon [1] of 77000 M⁻¹ s⁻¹ were found for B6 in this work. For the same binder, the “Ka, mut/Ka, WT” value [2] was ~103 fold and the ΔΔG [3] was -2.7 kcal/mol.

B7: Variant 14059 (antibody, human IgG1, kappa)
heavy: EVQLVESGGGLVQPGGSLRLSCAASGFTFYDYTMDWVRQAPGKGLEWVADVNPNSGGSIYNQRFKGRFTLSVDRSWNTLYLQMNSLRAEDTAVYYCARNLGPSFYFDYWGQGTLVTVSSASTKGPSVFPLAPSSKSTSGGTAALGCLVKDYFPEPVTVSWNSGALTSGVHTFPAVLQSSGLYSLSSVVTVPSSSLGTQTYICNVNHKPSNTKVDKKVEPKSCDKTHTCPPCPAPELLGGPSVFLFPPKPKDTLMISRTPEVTCVVVDVSHEDPEVKFNWYVDGVEVHNAKTKPREEQYNSTYRVVSVLTVLHQDWLNGKEYKCKVSNKALPAPIEKTISKAKGQPREPQVYVYPPSRDELTKNQVSLTCLVKGFYPSDIAVEWESNGQPENNYKTTPPVLDSDGSFALVSKLTVDKSRWQQGNVFSCSVMHEALHNHYTQKSLSLSPG
light: not shown
chain: not shown
notes: OA (one-armed) format; clones 8776, 8781, 4372; also called v14059
A Kd [1] of ~0.061 nM, a koff [1] of ~5.3e-06 s⁻¹ and a kon [1] of 88000 M⁻¹ s⁻¹ were found for B7 in this work. For the same binder, the “Ka, mut/Ka, WT” value [2] was ~269 fold and the ΔΔG [3] was -3.3 kcal/mol.

B8: Variant 14062 (antibody, human IgG1, kappa)
heavy: EVQLVESGGGLVQPGGSLRLSCAASGFTFQDYTMDWVRQAPGKGLEWVADVNPNSGYSIYNQRFKGRFTLSVDRSKNTLYLQMNSLRAEDTAVYYCARNLGPWFYFDYWGQGTLVTVSSASTKGPSVFPLAPSSKSTSGGTAALGCLVKDYFPEPVTVSWNSGALTSGVHTFPAVLQSSGLYSLSSVVTVPSSSLGTQTYICNVNHKPSNTKVDKKVEPKSCDKTHTCPPCPAPELLGGPSVFLFPPKPKDTLMISRTPEVTCVVVDVSHEDPEVKFNWYVDGVEVHNAKTKPREEQYNSTYRVVSVLTVLHQDWLNGKEYKCKVSNKALPAPIEKTISKAKGQPREPQVYVYPPSRDELTKNQVSLTCLVKGFYPSDIAVEWESNGQPENNYKTTPPVLDSDGSFALVSKLTVDKSRWQQGNVFSCSVMHEALHNHYTQKSLSLSPG
light: not shown
chain: not shown
notes: OA (one-armed) format; clones 8789, 7919, 4372; also called v14062
A Kd [1] of 0.63 nM, a koff [1] of 3.5e-05 s⁻¹ and a kon [1] of 56000 M⁻¹ s⁻¹ were found for B8 in this work. The “Ka, mut/Ka, WT” value [2] was 26 fold and the ΔΔG [3] was -1.9 kcal/mol.

B9: Variant 14063 (antibody, human IgG1, kappa)
heavy: EVQLVESGGGLVQPGGSLRLSCAASGFTFQDYTMDWVRQAPGKGLEWVADVNPNSGYSIYNQRFKGRFTLSVDRSKNTLYLQMNSLRAEDTAVYYCARNLGPSFYFDYWGQGTLVTVSSASTKGPSVFPLAPSSKSTSGGTAALGCLVKDYFPEPVTVSWNSGALTSGVHTFPAVLQSSGLYSLSSVVTVPSSSLGTQTYICNVNHKPSNTKVDKKVEPKSCDKTHTCPPCPAPELLGGPSVFLFPPKPKDTLMISRTPEVTCVVVDVSHEDPEVKFNWYVDGVEVHNAKTKPREEQYNSTYRVVSVLTVLHQDWLNGKEYKCKVSNKALPAPIEKTISKAKGQPREPQVYVYPPSRDELTKNQVSLTCLVKGFYPSDIAVEWESNGQPENNYKTTPPVLDSDGSFALVSKLTVDKSRWQQGNVFSCSVMHEALHNHYTQKSLSLSPG
light: not shown
chain: not shown
notes: OA (one-armed) format; clones 8788, 8781, 4372; also called v14063
A Kd [1] of ~0.13 nM, a koff [1] of ~8.3e-06 s⁻¹ and a kon [1] of 63000 M⁻¹ s⁻¹ were found for B9 in this work. The “Ka, mut/Ka, WT” value [2] was ~124 fold and the ΔΔG [3] was -2.9 kcal/mol.

B10: Variant 14056 (antibody, human IgG1, kappa)
heavy: EVQLVESGGGLVQPGGSLRLSCAASGFTFQDYTMDWVRQAPGKGLEWVADVNPNSGGSIYNQRFKGRFTLSVDRSWNTLYLQMNSLRAEDTAVYYCARNLGPSFYFDYWGQGTLVTVSSASTKGPSVFPLAPSSKSTSGGTAALGCLVKDYFPEPVTVSWNSGALTSGVHTFPAVLQSSGLYSLSSVVTVPSSSLGTQTYICNVNHKPSNTKVDKKVEPKSCDKTHTCPPCPAPELLGGPSVFLFPPKPKDTLMISRTPEVTCVVVDVSHEDPEVKFNWYVDGVEVHNAKTKPREEQYNSTYRVVSVLTVLHQDWLNGKEYKCKVSNKALPAPIEKTISKAKGQPREPQVYVYPPSRDELTKNQVSLTCLVKGFYPSDIAVEWESNGQPENNYKTTPPVLDSDGSFALVSKLTVDKSRWQQGNVFSCSVMHEALHNHYTQKSLSLSPG
light: not shown
chain: not shown
notes: OA (one-armed) format; clones 8775, 8781, 4372; also called v14056
A Kd [1] of ~0.11 nM, a koff [1] of ~8.4e-06 s⁻¹ and a kon [1] of 76000 M⁻¹ s⁻¹ were found for B10 in this work. For the same binder, the “Ka, mut/Ka, WT” value [2] was ~148 fold and the ΔΔG [3] was -3 kcal/mol.

— US20180273635A1 (Zymeworks, published 2018)
